# FireProtDB (doi:10.1016/0022-2836(92)90907-2)
# B1: Ribonuclease, P00648 (parent)
# chain: MMKMEGIALKKRLSWISVCLLVLVSAAGMLFSTAAKTETSSHKAHTEAQVINTFDGVADYLQTYHKLPDNYITKSEAQALGWVASKGNLADVAPGKSIGGDIFSNREGKLPGKSGRTWREADINYTSGFRNSDRILYSSDWLIYKTTDHYQTFTKIR
# Variants of: B1
# Settings: Bacillus amyloliquefaciens; pH 6.3; 25 °C; Urea; Fluorescence; MES 450 mM; reversible: yes; structure 1BNI; whole UniProt chain shown
Variant,ddG of mutation (higher = less stable) [kcal/mol],denaturant m value [kcal/mol/M],denaturant midpoint (higher = more stable) [M],unfolding free energy [kcal/mol]
MMKMEGIALKKRLSWISVCLLVLVSAAGMLFSTAAKTETSSHKAHTEAQVINTFDGVADYLQTYHKLPDNYITKSEAQYLGWVASKGNLADVAPGKSIGGDIFSNREGKLPGKSGRTWREADINYTSGFRNSDRILYSSDWLIYKTTDHYQTFTKIR,0.7,1.95,4.1,8.13
MMKMEGIALKKRLSWISVCLLVLVSAAGMLFSTAAKTETSSHKAHTEAQVINTFDGVADYLQTYHKLPDNYITKSEAQDLGWVASKGNLADVAPGKSIGGDIFSNREGKLPGKSGRTWREADINYTSGFRNSDRILYSSDWLIYKTTDHYQTFTKIR,0.41,1.99,4.2,8.42
MMKMEGIALKKRLSWISVCLLVLVSAAGMLFSTAAKTETSSHKAHTEAQVINTFDGVADYLQTYHKLPDNYITKSEAQKLGWVASKGNLADVAPGKSIGGDIFSNREGKLPGKSGRTWREADINYTSGFRNSDRILYSSDWLIYKTTDHYQTFTKIR,0.1,1.94,4.5,8.73
MMKMEGIALKKRLSWISVCLLVLVSAAGMLFSTAAKTETSSHKAHTEAQVINTFDGVADYLQTYHKLPDNYITKSEAQLLGWVASKGNLADVAPGKSIGGDIFSNREGKLPGKSGRTWREADINYTSGFRNSDRILYSSDWLIYKTTDHYQTFTKIR,-0.08,2.02,4.4,8.91
MMKMEGIALKKRLSWISVCLLVLVSAAGMLFSTAAKTETSSHKAHTEAQVINTFDGVADYLQTYHKLPDNYITKSEAQPLGWVASKGNLADVAPGKSIGGDIFSNREGKLPGKSGRTWREADINYTSGFRNSDRILYSSDWLIYKTTDHYQTFTKIR,4.12,1.89,2.4,4.71
MMKMEGIALKKRLSWISVCLLVLVSAAGMLFSTAAKTETSSHKAHTEAQVINTFDGVADYLQTYHKLPDNYITKSEAQNLGWVASKGNLADVAPGKSIGGDIFSNREGKLPGKSGRTWREADINYTSGFRNSDRILYSSDWLIYKTTDHYQTFTKIR,0.33,2,4.2,8.5
MMKMEGIALKKRLSWISVCLLVLVSAAGMLFSTAAKTETSSHKAHTEAQVINTFDGVADYLQTYHKLPDNYITKSEAQQLGWVASKGNLADVAPGKSIGGDIFSNREGKLPGKSGRTWREADINYTSGFRNSDRILYSSDWLIYKTTDHYQTFTKIR,0.35,1.95,4.3,8.48
MMKMEGIALKKRLSWISVCLLVLVSAAGMLFSTAAKTETSSHKAHTEAQVINTFDGVADYLQTYHKLPDNYITKSEAQWLGWVASKGNLADVAPGKSIGGDIFSNREGKLPGKSGRTWREADINYTSGFRNSDRILYSSDWLIYKTTDHYQTFTKIR,1.14,1.88,4,7.69
MMKMEGIALKKRLSWISVCLLVLVSAAGMLFSTAAKTETSSHKAHTEAQVINTFDGVADYLQTYHKLPDNYITKSEAQHLGWVASKGNLADVAPGKSIGGDIFSNREGKLPGKSGRTWREADINYTSGFRNSDRILYSSDWLIYKTTDHYQTFTKIR,0.7,1.94,4.1,8.13
MMKMEGIALKKRLSWISVCLLVLVSAAGMLFSTAAKTETSSHKAHTEAQVINTFDGVADYLQTYHKLPDNYITKSEAQVLGWVASKGNLADVAPGKSIGGDIFSNREGKLPGKSGRTWREADINYTSGFRNSDRILYSSDWLIYKTTDHYQTFTKIR,0.34,2.05,4.1,8.49
MMKMEGIALKKRLSWISVCLLVLVSAAGMLFSTAAKTETSSHKAHTEAQVINTFDGVADYLQTYHKLPDNYITKSEAQRLGWVASKGNLADVAPGKSIGGDIFSNREGKLPGKSGRTWREADINYTSGFRNSDRILYSSDWLIYKTTDHYQTFTKIR,0.2,1.91,4.5,8.63
MMKMEGIALKKRLSWISVCLLVLVSAAGMLFSTAAKTETSSHKAHTEAQVINTFDGVADYLQTYHKLPDNYITKSEAQMLGWVASKGNLADVAPGKSIGGDIFSNREGKLPGKSGRTWREADINYTSGFRNSDRILYSSDWLIYKTTDHYQTFTKIR,0.08,1.97,4.4,8.75
MMKMEGIALKKRLSWISVCLLVLVSAAGMLFSTAAKTETSSHKAHTEAQVINTFDGVADYLQTYHKLPDNYITKSEAQCLGWVASKGNLADVAPGKSIGGDIFSNREGKLPGKSGRTWREADINYTSGFRNSDRILYSSDWLIYKTTDHYQTFTKIR,1.85,1.71,4,6.98
MMKMEGIALKKRLSWISVCLLVLVSAAGMLFSTAAKTETSSHKAHTEAQVINTFDGVADYLQTYHKLPDNYITKSEAQSLGWVASKGNLADVAPGKSIGGDIFSNREGKLPGKSGRTWREADINYTSGFRNSDRILYSSDWLIYKTTDHYQTFTKIR,0.16,1.98,4.3,8.67
MMKMEGIALKKRLSWISVCLLVLVSAAGMLFSTAAKTETSSHKAHTEAQVINTFDGVADYLQTYHKLPDNYITKSEAQGLGWVASKGNLADVAPGKSIGGDIFSNREGKLPGKSGRTWREADINYTSGFRNSDRILYSSDWLIYKTTDHYQTFTKIR,0.65,1.98,4.1,8.18
MMKMEGIALKKRLSWISVCLLVLVSAAGMLFSTAAKTETSSHKAHTEAQVINTFDGVADYLQTYHKLPDNYITKSEAQELGWVASKGNLADVAPGKSIGGDIFSNREGKLPGKSGRTWREADINYTSGFRNSDRILYSSDWLIYKTTDHYQTFTKIR,-0.13,2.08,4.3,8.96
MMKMEGIALKKRLSWISVCLLVLVSAAGMLFSTAAKTETSSHKAHTEAQVINTFDGVADYLQTYHKLPDNYITKSEAQFLGWVASKGNLADVAPGKSIGGDIFSNREGKLPGKSGRTWREADINYTSGFRNSDRILYSSDWLIYKTTDHYQTFTKIR,0.43,1.98,4.2,8.4
